# Results reported in paper PMC9848366, “Crystal structure of vaccinia virus G3/L5 sub-complex reveals a novel fold with extended inter-molecule interactions conserved among orthopoxviruses” (Emerging Microbes & Infections, 2023).
# T1: VACV G3-ectodomain, tag-free (G3-Ecto) (vaccinia virus (VACV), UniProt P68458 22-111)
# T1 sequence: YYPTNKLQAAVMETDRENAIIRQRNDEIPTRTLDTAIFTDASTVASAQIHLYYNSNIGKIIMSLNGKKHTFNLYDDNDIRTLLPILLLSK
# B1: VACV L5-ectodomain, tag-free (L5-Ecto) (domain or fragment)
# chain: NMFFMPKRKIPDPIDRLRRANLACEDDKLMIYGLPWMTTQTSALSINSKPIVYKDCAKLLRSINGSQPVSLNDVLRR
# Biological target: T1, VACV G3-ectodomain, tag-free (G3-Ecto)
# Test: crystal structure
# Conditions: both partners purified
binder,measurement,value
B1,binding result,binds
